Reference: the supplement of paper PMC5998384

Assays:
[1] = tested on: HeLa Kyoto; test: solubility in G1/S (NP-40 vs SDS abundance) (log2 ratio); higher = more soluble; settings: cell cycle stage: G1/S
[2] = tested on: HeLa Kyoto; test: melting temperature (median over replicates), in situ; higher = more thermally stable
[3] = tested on: HeLa Kyoto; test: solubility change mitosis vs G1/S (difference of NP-40 vs SDS log2 ratios) (log2 ratio difference); higher = more soluble in mitosis
[4] = tested on: HeLa Kyoto; test: thermal stability score vs G1/S (z-score of summed log2 fold changes over temperatures); higher = more thermally stable than in G1/S
[5] = cell cycle stage: early G1 (4.5 h after nocodazole release)
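Throughout, for melting temperature (median over replicates), in situ: HeLa Kyoto cells synchronized by double thymidine or nocodazole block, proteins quantified by TMT10plex mass spectrometry, three independent biological replicates.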
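Throughout, for solubility change mitosis vs G1/S (difference of NP-40 vs SDS log2 ratios): synchronized HeLa Kyoto cells (double thymidine block for G1/S, nocodazole release for mitosis), protein amounts in NP-40 versus SDS lysates quantified by mass spectrometry, three biological replicates.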
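Throughout, for solubility in G1/S (NP-40 vs SDS abundance): HeLa Kyoto cells arrested at G1/S by double thymidine block, proteins quantified by TMT10plex mass spectrometry in mild NP-40 versus SDS extracts, three biological replicates.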
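Throughout, for thermal stability score vs G1/S (z-score of summed log2 fold changes over temperatures): synchronized HeLa Kyoto cells, proteins quantified by TMT10plex mass spectrometry, three biological replicates, mitosis taken 0.5 h after nocodazole release, G1/S directly after double thymidine block.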

Sequence | solubility in G1/S (log2) [1] | melting temperature ([2]; cell cycle stage: G1/S) [°C] | melting temperature ([2]; cell cycle stage: mitosis) [°C] | solubility change mitosis (log2) [3] | thermal stability score [4, 5] | thermal stability score ([4]; cell cycle stage: mitosis)
MLGARAWLGRVLLLPRAGAGLAASRRGSSSRDKDRSATVSSSVPMPAGGKGSHPSSTPQRVPNRLIHEKSPYLLQHAYNPVDWYPWGQEAFDKARKENKPIFLSVGYSTCHWCHMMEEESFQNEEIGRLLSEDFVSVKVDREERPDVDKVYMTFVQATSSGGGWPMNVWLTPNLQPFVGGTYFPPEDGLTRVGFRTVLLRIREQWKQNKNTLLENSQRVTTALLARSEISVGDRQLPPSAATVNNRCFQQLDEGYDEEYGGFAEAPKFPTPVILSFLFSYWLSHRLTQDGSRAQQMALHTLKMMANGGIRDHVGQGFHRYSTDRQWHVPHFEKMLYDQAQLAVAYSQAFQLSGDEFYSDVAKGILQYVARSLSHRSGGFYSAEDADSPPERGQRPKEGAYYVWTVKEVQQLLPEPVLGATEPLTSGQLLMKHYGLTEAGNISPSQDPKGELQGQNVLTVRYSLELTAARFGLDVEAVRTLLNSGLEKLFQARKHRPKPHLDSKMLAAWNGLMVSGYAVTGAVLGQDRLINYATNGAKFLKRHMFDVASGRLMRTCYTGPGGTVEHSNPPCWGFLEDYAFVVRGLLDLYEASQESAWLEWALRLQDTQDKLFWDSQGGGYFCSEAELGAGLPLRLKDDQDGAEPSANSVSAHNLLRLHGFTGHKDWMDKCVCLLTAFSERMRRVPVALPEMVRALSAQQQTLKQIVICGDRQAKDTKALVQCVHSVYIPNKVLILADGDPSSFLSRQLPFLSTLRRLEDQATAYVCENQACSVPITDPCELRKLLHP [SPATA20] | 0.267 | 51.6 | 52.6 | -0.304 | 0.594 | 0.85
MLGKGVVGGGGGTKAPKPSFVSYVRPEEIHTNEKEVTEKEVTLHLLPGEQLLCEASTVLKYVQEDSCQHGVYGRLVCTDFKIAFLGDDESALDNDETQFKNKVIGENDITLHCVDQIYGVFDEKKKTLFGQLKKYPEKLIIHCKDLRVFQFCLRYTKEEEVKRIVSGIIHHTQAPKLLKRLFLFSYATAAQNNTVTDPKNHTVMFDTLKDWCWELERTKGNMKYKAVSVNEGYKVCERLPAYFVVPTPLPEENVQRFQGHGIPIWCWSCHNGSALLKMSALPKEQDDGILQIQKSFLDGIYKTIHRPPYEIVKTEDLSSNFLSLQEIQTAYSKFKQLFLIDNSTEFWDTDIKWFSLLESSSWLDIIRRCLKKAIEITECMEAQNMNVLLLEENASDLCCLISSLVQLMMDPHCRTRIGFQSLIQKEWVMGGHCFLDRCNHLRQNDKEEVPVFLLFLDCVWQLVHQHPPAFEFTETYLTVLSDSLYIPIFSTFFFNSPHQKDTNMGREGQDTQSKPLNLLTVWDWSVQFEPKAQTLLKNPLYVEKPKLDKGQRKGMRFKHQRQLSLPLTQSKSSPKRGFFREETDHLIKNLLGKRISKLINSSDELQDNFREFYDSWHSKSTDYHGLLLPHIEGPEIKVWAQRYLRWIPEAQILGGGQVATLSKLLEMMEEVQSLQEKIDERHHSQQAPQAEAPCLLRNSARLSSLFPFALLQRHSSKPVLPTSGWKALGDEDDLAKREDEFVDLGDV [MTMR12] | -0.0977 | 56.1 | 56 | -0.11 | -0.744 | -0.447
MLGVRCLLRSVRFCSSAPFPKHKPSAKLSVRDALGAQNASGERIKIQGWIRSVRSQKEVLFLHVNDGSSLESLQVVADSGLDSRELNFGSSVEVQGQLIKSPSKRQNVELKAEKIKVIGNCDAKDFPIKYKERHPLEYLRQYPHFRCRTNVLGSILRIRSEATAAIHSFFKDSGFVHIHTPIITSNDSEGAGELFQLEPSGKLKVPEENFFNVPAFLTVSGQLHLEVMSGAFTQVFTFGPTFRAENSQSRRHLAEFYMIEAEISFVDSLQDLMQVIEELFKATTMMVLSKCPEDVELCHKFIAPGQKDRLEHMLKNNFLIISYTEAVEILKQASQNFTFTPEWGADLRTEHEKYLVKHCGNIPVFVINYPLTLKPFYMRDNEDGPQHTVAAVDLLVPGVGELFGGGLREERYHFLEERLARSGLTEVYQWYLDLRRFGSVPHGGFGMGFERYLQCILGVDNIKDVIPFPRFPHSCLL [NARS2] | -0.141 | 49.7 | 49.8 | -0.147 | -0.169 | 1.1
MLKAVILIGGPQKGTRFRPLSFEVPKPLFPVAGVPMIQHHIEACAQVPGMQEILLIGFYQPDEPLTQFLEAAQQEFNLPVRYLQEFAPLGTGGGLYHFRDQILAGSPEAFFVLNADVCSDFPLSAMLEAHRRQRHPFLLLGTTANRTQSLNYGCIVENPQTHEVLHYVEKPSTFISDIINCGIYLFSPEALKPLRDVFQRNQQDGQLEDSPGLWPGAGTIRLEQDVFSALAGQGQIYVHLTDGIWSQIKSAGSALYASRLYLSRYQDTHPERLAKHTPGGPWIRGNVYIHPTAKVAPSAVLGPNVSIGKGVTVGEGVRLRESIVLHGATLQEHTCVLHSIVGWGSTVGRWARVEGTPSDPNPNDPRARMDSESLFKDGKLLPAITILGCRVRIPAEVLILNSIVLPHKELSRSFTNQIIL [GMPPA] | 0.0728 | 54.4 | 53 | -0.00526 | 0.0726 | -3.01
MLKPQPLQQPSQPQQPPPTQQAVARRPPGGTSPPNGGLPGPLATSAAPPGPPAAASPCLGPVAAAGSGLRRGAEGILAPQPPPPQQHQERPGAAAIGSARGQSTGKGPPQSPVFEGVYNNSRMLHFLTAVVGSTCDVKVKNGTTYEGIFKTLSSKFELAVDAVHRKASEPAGGPRREDIVDTMVFKPSDVMLVHFRNVDFNYATKDKFTDSAIAMNSKVNGEHKEKVLQRWEGGDSNSDDYDLESDMSNGWDPNEMFKFNEENYGVKTTYDSSLSSYTVPLEKDNSEEFRQRELRAAQLAREIESSPQYRLRIAMENDDGRTEEEKHSAVQRQGSGRESPSLASREGKYIPLPQRVREGPRGGVRCSSSRGGRPGLSSLPPRGPHHLDNSSPGPGSEARGINGGPSRMSPKAQRPLRGAKTLSSPSNRPSGETSVPPPPAVGRMYPPRSPKSAAPAPISASCPEPPIGSAVPTSSASIPVTSSVSDPGVGSISPASPKISLAPTDVKELSTKEPGRTLEPQELARIAGKVPGLQNEQKRFQLEELRKFGAQFKLQPSSSPENSLDPFPPRILKEEPKGKEKEVDGLLTSEPMGSPVSSKTESVSDKEDKPPLAPSGGTEGPEQPPPPCPSQTGSPPVGLIKGEDKDEGPVAEQVKKSTLNPNAKEFNPTKPLLSVNKSTSTPTSPGPRTHSTPSIPVLTAGQSGLYSPQYISYIPQIHMGPAVQAPQMYPYPVSNSVPGQQGKYRGAKGSLPPQRSDQHQPASAPPMMQAAAAAGPPLVAATPYSSYIPYNPQQFPGQPAMMQPMAHYPSQPVFAPMLQSNPRMLTSGSHPQAIVSSSTPQYPSAEQPTPQALYATVHQSYPHHATQLHAHQPQPATTPTGSQPQSQHAAPSPVQHQAGQAPHLGSGQPQQNLYHPGALTGTPPSLPPGPSAQSPQSSFPQPAAVYAIHHQQLPHGFTNMAHVTQAHVQTGITAAPPPHPGAPHPPQVMLLHPPQSHGGPPQGAVPQSGVPALSASTPSPYPYIGHPQGEQPGQAPGFPGGADDRIREFSLAGGIWHGRAEGLQVGQDARVLGGE [ATXN2L] | -0.0191 | 52.3 | 53.2 | 0.367 | -0.388 | -1.51
MLLGGPPRSPRSGTSPKGPWSSTGHVQFGKSPQTWPRRTRPRSPEPAAPSGVRGSTWTRRRDSPRRAGPTALSRYVGHLWMGRRPPSPEARGPVPRSSAASRARRSLASPGISPGPLTATIGGAVAGGGPRQGRAEAHKEVFPGQRVGKMAAPMELFCWSGGWGLPSVDLDSLAVLTYARFTGAPLKVHKISNPWQSPSGTLPALRTSHGEVISVPHKIITHLRKEKYNADYDLSARQGADTLAFMSLLEEKLLPVLVHTFWIDTKNYVEVTRKWYAEAMPFPLNFFLPGRMQRQYMERLQLLTGEHRPEDEEELEKELYREARECLTLLSQRLGSQKFFFGDAPASLDAFVFSYLALLLQAKLPSGKLQVHLRGLHNLCAYCTHILSLYFPWDGAEVPPQRQTPAGPETEEEPYRRRNQILSVLAGLAAMVGYALLSGIVSIQRATPARAPGTRTLGMAEEDEEE [MTX1] | 0.309 | 52.8 | 52.4 | -0.12 | 0.166 | -0.623
MLLKEYRICMPLTVDEYKIGQLYMISKHSHEQSDRGEGVEVVQNEPFEDPHHGNGQFTEKRVYLNSKLPSWARAVVPKIFYVTEKAWNYYPYTITEYTCSFLPKFSIHIETKYEDNKGSNDTIFDNEAKDVEREVCFIDIACDEIPERYYKESEDPKHFKSEKTGRGQLREGWRDSHQPIMCSYKLVTVKFEVWGLQTRVEQFVHKVVRDILLIGHRQAFAWVDEWYDMTMDEVREFERATQEATNKKIGIFPPAISISSIPLLPSSVRSAPSSAPSTPLSTDAPEFLSVPKDRPRKKSAPETLTLPDPEKKATLNLPGMHSSDKPCRPKSE [PITPNC1] | -0.0542 | 51.7 | 51.5 | -0.0509 | 0.0627 | -1.13
MLLNGDCPESLKKEAAAAEPPRENGLDEAGPGDETTGQEVIVIQDTGFSVKILAPGIEPFSLQVSPQEMVQEIHQVLMDREDTCHRTCFSLHLDGNVLDHFSELRSVEGLQEGSVLRVVEEPYTVREARIHVRHVRDLLKSLDPSDAFNGVDCNSLSFLSVFTDGDLGDSGKRKKGLEMDPIDCTPPEYILPGSRERPLCPLQPQNRDWKPLQCLKVLTMSGWNPPPGNRKMHGDLMYLFVITAEDRQVSITASTRGFYLNQSTAYHFNPKPASPRFLSHSLVELLNQISPTFKKNFAVLQKKRVQRHPFERIATPFQVYSWTAPQAEHAMDCVRAEDAYTSRLGYEEHIPGQTRDWNEELQTTRELPRKNLPERLLRERAIFKVHSDFTAAATRGAMAVIDGNVMAINPSEETKMQMFIWNNIFFSLGFDVRDHYKDFGGDVAAYVAPTNDLNGVRTYNAVDVEGLYTLGTVVVDYRGYRVTAQSIIPGILERDQEQSVIYGSIDFGKTVVSHPRYLELLERTSRPLKILRHQVLNDRDEEVELCSSVECKGIIGNDGRHYILDLLRTFPPDLNFLPVPGEELPEECARAGFPRAHRHKLCCLRQELVDAFVEHRYLLFMKLAALQLMQQNASQLETPSSLENGGPSSLESKSEDPPGQEAGSEEEGSSASGLAKVKELAETIAADDGTDPRSREVIRNACKAVGSISSTAFDIRFNPDIFSPGVRFPESCQDEVRDQKQLLKDAAAFLLSCQIPGLVKDCMEHAVLPVDGATLAEVMRQRGINMRYLGKVLELVLRSPARHQLDHVFKIGIGELITRSAKHIFKTYLQGVELSGLSAAISHFLNCFLSSYPNPVAHLPADELVSKKRNKRRKNRPPGAADNTAWAVMTPQELWKNICQEAKNYFDFDLECETVDQAVETYGLQKITLLREISLKTGIQVLLKEYSFDSRHKPAFTEEDVLNIFPVVKHVNPKASDAFHFFQSGQAKVQQGFLKEGCELINEALNLFNNVYGAMHVETCACLRLLARLHYIMGDYAEALSNQQKAVLMSERVMGTEHPNTIQEYMHLALYCFASSQLSTALSLLYRARYLMLLVFGEDHPEMALLDNNIGLVLHGVMEYDLSLRFLENALAVSTKYHGPKALKVALSHHLVARVYESKAEFRSALQHEKEGYTIYKTQLGEDHEKTKESSEYLKCLTQQAVALQRTMNEIYRNGSSANIPPLKFTAPSMASVLEQLNVINGILFIPLSQKDLENLKAEVARRHQLQEASRNRDRAEEPMATEPAPAGAPGDLGSQPPAAKDPSPSVQG [CLUH] | -0.0434 | 51.1 | 50.1 | -0.119 | 0.526 | -0.315
MLPNTGRLAGCTVFITGASRGIGKAIALKAAKDGANIVIAAKTAQPHPKLLGTIYTAAEEIEAVGGKALPCIVDVRDEQQISAAVEKAIKKFGGIDILVNNASAISLTNTLDTPTKRLDLMMNVNTRGTYLASKACIPYLKKSKVAHILNISPPLNLNPVWFKQHCAYTIAKYGMSMYVLGMAEEFKGEIAVNALWPKTAIHTAAMDMLGGPGIESQCRKVDIIADAAYSIFQKPKSFTGNFVIDENILKEEGIENFDVYAIKPGHPLQPDFFLDEYPEAVSKKVESTGAVPEFKEEKLQLQPKPRSGAVEETFRIVKDSLSDDVVKATQAIYLFELSGEDGGTWFLDLKSKGGNVGYGEPSDQADVVMSMTTDDFVKMFSGKLKPTMAFMSGKLKIKGNMALAIKLEKLMNQMNARL [HSDL2] | 0.296 | 51.5 | 52.5 | -0.109 | -0.828 | 0.589
